Results taken from PMC7925178.

Legend:
[1] = target: AMC009 SOSIP.v4.2-D7324 trimer (HIV-1 (subtype B)); assay: negative-stain electron microscopy; NS-EM, reference-free 2D class averages of purified SOSIP trimers; percent native-like trimers
[2] = target: AMC009 SOSIP.v5.2 trimer (HIV-1 (subtype B)); assay: as above
[3] = target: AMC009 SOSIP.v5.2 trimer (HIV-1 (subtype B)); assay: native gel or EMSA
[4] = target: AMC011 SOSIP.v4.2 trimer (HIV-1 (subtype B)); assay: native gel or EMSA
[5] = target: AMC011 SOSIP.v5.2 trimer (HIV-1 (subtype B)); assay: negative-stain electron microscopy; NS-EM, reference-free 2D class averages of purified SOSIP trimers; percent native-like trimers
[6] = target: AMC011 SOSIP.v5.2 trimer (HIV-1 (subtype B)); assay: native gel or EMSA

Q: With “AMC009 SOSIP.v4.2-D7324 trimer (complex)” as the substance, how does the % native-like trimers [1] read?
A: 100%

Q: With AMC009 SOSIP.v5.2 trimer (complex) as the substance, how does the % native-like trimers [2] read?
A: 100%

Q: And the stoichiometry N [3]?
A: 3

Q: Which stoichiometry N [4] does the source give for AMC011 SOSIP.v4.2 trimer (complex) here?
A: 3

Q: Which % native-like trimers [5] does the source give for AMC011 SOSIP.v5.2 trimer (complex) here?
A: 100%

Q: What about the stoichiometry N [6] of the same substance?
A: 3
